Test: β-ketothiolase activity, 4-hydroxybutyryl-CoA and acetyl-CoA to 3-oxo-6-hydroxyhexanoyl-CoA
Type: biochemical
Settings: 5 μM enzyme and ChnC lactonase, 10 mM γ-butyrolactone, 5 mM acetyl-CoA, pH 6.8, 30° C., 3 hour
Protocol: A nucleotide sequence encoding a N-terminal His-tag was added to the gene from Clostridium aminobutyricum encoding the β-ketothiolase activity of SEQ ID NO: 14 (see FIG. 6) such that a N-terminal HIS tagged enzyme could be produced. The resulting modified gene was cloned into a pET15b expression vector under control of the T7 promoter and the expression vector was transformed into a BL21[DE3] E. coli host. The resulting recombinant E. coli strain was cultivated at 37° C. in a 1 L shake flask culture containing 350 mL LB media and ampicillin antibiotic selection pressure, with shaking at 230 rpm. Each culture was induced overnight at 25° C. using 1 mM IPTG.
The pellet from each induced shake flask culture was harvested via centrifugation. Each pellet was resuspended and lysed via sonication. The cell debris was separated from the supernatant via centrifugation. The enzyme was purified from the supernatant using Ni-affinity chromatography, buffer exchanged and concentrated into 50 mM potassium phosphate buffer (pH=6.8) via ultrafiltration.
Enzyme activity assays converting 4-hydroxybutyryl-CoA and acetyl-CoA to 3-oxo-6-hydroxyhexanoyl-CoA were performed in triplicate in a buffer composed of a final concentration of 50 mM potassium phosphate buffer (pH=6.8), 75 μM ZnCl2, 10 mM γ-butyrolactone and 5 mM acetyl-CoA. […] The formation of 3-oxo-6-hydroxyhexanoyl-CoA was determined via LC-MS.

B1: SEQ ID NO 14: Clostridium aminobutyricum CoA-transferase, GenBank Accession No. CAB60036.2, with β-ketothiolase activity, N-terminal His-tagged (protein, listed as Clostridium aminobutyricum)
chain: MDWKKIYEDRTCTADEAVKSIKSGDRVLFAHCVAEPPVLVEAMVANAAAYKNVTVSHMVTLGKGEYSKPEYKENFTFEGWFTSPSTRGSIAEGHGQFVPVFFHEVPSLIRKDIFHVDVFMVMVSPPDHNGFCCVGVSSDYTMQAIKSAKIVLAEVNDQVPVVYGDTFVHVSEIDKFVETSHPLPEIGLPKIGEVEAAIGKHCASLIEDGSTLQLGIGAIPDAVLSQLKDKKHLGIHSEMISDGVVDLYEAGVIDCSQKSIDKGKMAITFLMGTKRLYDFAANNPKVELKPVDYINHPSVVAQCSKMVCINACLQVDFMGQIVSDSIGTKQFSGVGGQVDFVRGASMSIDGKGKAIIAMPSVAKKKDGSMISKIVPFIDHGAAVTTSRNDADYVVTEYGIAEMKGKSLQDRARALINIAHPDFKDELKAEFEKRFNAAF
modifications: N-terminal His tag
In the case of B1, the “acceptance of 4-hydroxybutyryl-CoA and acetyl-CoA as substrates, formation of 3-oxo-6-hydroxyhexanoyl-CoA (LC-MS)” value is reported as “accepted 4-hydroxybutyryl-CoA and acetyl-CoA as substrates”.

From US20160160255A1, “Methods and Materials for Producing 6-Carbon Monomers” (INVISTA North America S.á.r.l., priority 2014, published 2016)
